According to patent publication US20180009899A1 (CORVUS PHARMACEUTICALS, published 2018):
Numbering of substitutions follows the chain as printed.

Target: T1, Cellular CD73 on MDA-MB-231 human breast cancer cells (human, UniProt P21589 27-549)
T1 construct: whole, on cells; Endogenous CD73 on MDA-MB-231 cells; also called 5'-nucleotidase; ecto-5'-nucleotidase
T1 sequence (looked up): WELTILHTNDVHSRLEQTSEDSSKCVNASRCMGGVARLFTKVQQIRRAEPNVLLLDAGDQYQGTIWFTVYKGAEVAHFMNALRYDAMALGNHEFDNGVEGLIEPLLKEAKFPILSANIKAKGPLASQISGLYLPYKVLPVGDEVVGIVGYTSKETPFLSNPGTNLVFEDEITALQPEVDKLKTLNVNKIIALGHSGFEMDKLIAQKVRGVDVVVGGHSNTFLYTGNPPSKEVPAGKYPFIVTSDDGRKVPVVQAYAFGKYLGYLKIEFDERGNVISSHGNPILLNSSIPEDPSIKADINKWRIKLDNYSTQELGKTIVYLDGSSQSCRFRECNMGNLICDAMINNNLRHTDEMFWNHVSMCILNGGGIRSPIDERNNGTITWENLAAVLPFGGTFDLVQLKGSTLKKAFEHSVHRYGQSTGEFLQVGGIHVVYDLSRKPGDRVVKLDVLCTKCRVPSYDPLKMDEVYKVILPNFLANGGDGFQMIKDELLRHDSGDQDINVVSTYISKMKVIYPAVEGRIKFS
Assay: flow cytometry on MDA-MB-231 cells, PE anti-human secondary

B1: CPX-006 (glycosylated) (antibody, human IgG1, kappa, N297Q, V domains shown)
VH: QVQLVQSGAEVEKPGASVKVSCKASGYTFTSYWITWVRQAPGQGLEWMGDIYPGSGNTNYNEKFKTRVTITADKSTSTAYMELSSLRSEDTAVYYCAKEGGLTTEDYALDYWGQGTLVTVSS
VL: EIVLTQSPATLSLSPGERATLSCRASKNVSTSGYSYMHWYQQKPGQAPRLLIYLASNLESGIPPRFSGSGYGTDFTLTINNIESEDAAYYFCQHSRELPFTFGQGTKVEIKR
modifications: N-linked glycosylation on CDR L1 (NXS motif at Kabat 27A-27C)
notes: Humanized anti-CD73 antibody with the CDRs of mouse 1E9; also called BAP094-hum07; glycosylated antibody
Q: Does B1 bind?
A: Result: binds

B2: CPX-008 (antibody, V domains shown)
VH: QVQLVQSGAEVEKPGASVKVSCKASGYTFTSYWITWVRQAPGQGLEWMGDIYPGSGNTNYNEKFKTRVTITADKSTSTAYMELSSLRSEDTAVYYCAKEGGLTTEDYALDYWGQGTLVTV
VL: EIVLTQSPATLSLSPGERATLSCRASKQVSTSGYSYMHWYQQKPGQAPRLLIYLASNLESGIPPRFSGSGYGTDFTLTINNIESEDAAYYFCQHSRELPFTFGQGTKVEIK
notes: also called aglycosylated antibody
Q: Does B2 bind?
A: Result: binds

B3: CPX-009 (antibody, V domains shown)
VH: B2 VH
VL: B2 VL with Q28A
notes: A at Kabat 27A of CDR L1, made in the CPX-006 light chain
Q: Does B3 bind?
A: Result: binds

B4: CPX-011 (antibody, V domains shown)
VH: B2 VH
VL: B2 VL with Q28N, S30A
notes: A at Kabat 27C of CDR L1, made in the CPX-006 light chain
Q: Does B4 bind?
A: Result: binds

B5: CPX-014 (antibody, V domains shown)
VH: B2 VH
VL: B2 VL with Q28D
notes: D at Kabat 27A of CDR L1, made in the CPX-006 light chain
Q: Does B5 bind?
A: Result: binds

B6: CPX-012 (antibody, V domains shown)
VH: B2 VH
VL: AIQLTQSPSSLSASVGDRVTITCRASKQVSTSGYSYMHWYQQKPGQAPRLLIYLASNLESGVPSRFSGSGSGTDFTFTISSLEAEDAATYYCQHSRELPFTFGQGTKVEIK
Q: Does B6 bind?
A: Result: binds
